Source: PMC8406179

Assays:
[1] = target: retinoblastoma tumor suppressor protein RB1 (endogenous, HCT116) (UniProt P06400); test: immunoprecipitation/Western blot (anti-Flag IP of E7, RB1 immunoblot); details: parent: 1
[2] = target: endogenous murine Rb1 (UniProt P13405); test: immunoprecipitation/Western blot (anti-HA IP of E7, Rb1 immunoblot); details: NIH 3T3 cells, transient expression; parent: 1
[3] = HCT116 cells, transient expression

UniProt P06400, sequence (P06400 whole entry): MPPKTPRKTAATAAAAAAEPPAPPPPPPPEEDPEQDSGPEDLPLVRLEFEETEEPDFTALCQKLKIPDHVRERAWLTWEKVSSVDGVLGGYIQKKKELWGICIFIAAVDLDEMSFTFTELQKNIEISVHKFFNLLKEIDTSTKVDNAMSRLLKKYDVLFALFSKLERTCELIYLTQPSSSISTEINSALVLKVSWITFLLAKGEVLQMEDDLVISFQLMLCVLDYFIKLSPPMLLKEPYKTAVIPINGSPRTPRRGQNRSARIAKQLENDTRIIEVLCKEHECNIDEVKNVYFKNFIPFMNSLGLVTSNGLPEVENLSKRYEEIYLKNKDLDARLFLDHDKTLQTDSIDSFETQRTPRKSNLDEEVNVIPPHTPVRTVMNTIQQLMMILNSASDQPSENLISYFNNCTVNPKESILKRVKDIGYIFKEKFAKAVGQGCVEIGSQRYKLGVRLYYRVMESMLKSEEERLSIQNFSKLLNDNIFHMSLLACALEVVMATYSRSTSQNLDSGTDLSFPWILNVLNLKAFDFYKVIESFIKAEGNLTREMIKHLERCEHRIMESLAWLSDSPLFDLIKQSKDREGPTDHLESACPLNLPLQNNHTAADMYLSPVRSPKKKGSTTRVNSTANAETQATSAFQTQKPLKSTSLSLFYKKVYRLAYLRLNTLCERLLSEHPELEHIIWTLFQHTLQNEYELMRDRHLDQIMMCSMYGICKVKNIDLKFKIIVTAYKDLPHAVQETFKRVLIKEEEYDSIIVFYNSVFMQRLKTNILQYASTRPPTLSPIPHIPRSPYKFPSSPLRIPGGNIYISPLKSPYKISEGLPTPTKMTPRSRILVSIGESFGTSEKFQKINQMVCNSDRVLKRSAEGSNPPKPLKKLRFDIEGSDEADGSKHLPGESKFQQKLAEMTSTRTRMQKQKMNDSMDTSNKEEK
UniProt P13405, sequence (P13405 whole entry): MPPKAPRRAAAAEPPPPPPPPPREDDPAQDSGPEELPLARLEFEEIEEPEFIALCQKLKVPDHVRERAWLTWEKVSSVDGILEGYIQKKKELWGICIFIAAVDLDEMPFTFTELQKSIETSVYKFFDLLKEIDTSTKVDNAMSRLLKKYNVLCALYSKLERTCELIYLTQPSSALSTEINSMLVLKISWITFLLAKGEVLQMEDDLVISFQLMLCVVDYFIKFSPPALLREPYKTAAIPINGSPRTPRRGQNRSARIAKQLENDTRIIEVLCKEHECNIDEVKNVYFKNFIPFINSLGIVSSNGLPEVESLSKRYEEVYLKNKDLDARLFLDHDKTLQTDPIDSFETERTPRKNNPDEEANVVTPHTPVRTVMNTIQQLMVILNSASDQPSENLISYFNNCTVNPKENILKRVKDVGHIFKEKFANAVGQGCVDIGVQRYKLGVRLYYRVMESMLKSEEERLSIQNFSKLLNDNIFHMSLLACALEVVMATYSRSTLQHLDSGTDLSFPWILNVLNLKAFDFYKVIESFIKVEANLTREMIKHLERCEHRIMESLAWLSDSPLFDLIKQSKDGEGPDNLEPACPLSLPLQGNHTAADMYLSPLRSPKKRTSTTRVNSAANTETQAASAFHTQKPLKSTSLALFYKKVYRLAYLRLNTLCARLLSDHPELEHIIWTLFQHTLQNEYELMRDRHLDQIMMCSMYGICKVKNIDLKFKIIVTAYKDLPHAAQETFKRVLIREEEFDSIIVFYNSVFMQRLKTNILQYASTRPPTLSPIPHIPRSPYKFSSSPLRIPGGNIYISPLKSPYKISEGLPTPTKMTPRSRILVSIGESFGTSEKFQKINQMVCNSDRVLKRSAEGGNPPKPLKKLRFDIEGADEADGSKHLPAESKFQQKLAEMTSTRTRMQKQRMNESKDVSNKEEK

Substance	ratio to parent [1, 3]	ratio to parent [1]	ratio to parent [2]
N-terminally FLAG/HA epitope-tagged MmuPV1 E7 E84R; S85R	0.65		
N-terminally FLAG/HA epitope-tagged MmuPV1 E7 R57D	0.64		
N-terminally FLAG/HA epitope-tagged MmuPV1 E7 D90N		0.27	
N-terminally FLAG/HA epitope-tagged MmuPV1 E7 D90A	0.01	0.05	0.02
N-terminally FLAG/HA epitope-tagged MmuPV1 E7 D90T		0.07	
